This is an account of results in patent US20220073643A1 (NANJING GENSCRIPT BIOTECH, published 2022).

Positions count from the first letter of the chain named.

B1: chimeric 241H10A1 (antibody, human IgG1, kappa, V domains shown)
VH: QVQLQQSGAELVKPGASVKLSCKASGYTFTSFGINWLRQRPEQGLEWIGWIFPGDGNSKYNENFKGKATLTTDKSSSTAYMQVTRLTSEDSAVYFCARFYYGNSFANWGQGTLVTVSA
VL: DIVMTQSPSSLTVTAGEKVTMSCKSSQSLLNSGNQKNYLTWYQQKPGQPPKLLIYWAATRESGVPDRFTGSGSGTDFTLTISSVQAEDLAVYYCQNDYFYPFTFGGGTKLELKR
notes: chimeric, human IgG1/kappa constant regions
B2: chimeric 182D10F1 (antibody, human IgG1, kappa, V domains shown)
VH: QAYLQQSGAELVRSGASVKMSCKASGYTFSSYNMHWVKQTPGQGLEWIGYIYPGNGGTNYNQKFKGKATLTADTSSSTAYMQISSLTSEDSAVYFCLTGRGFTYWGQGTLVTVSA
VL: B1 VL with S22N, L30F, W56R, A58S, F99S, F102L, G106V
notes: as for B1
B3: humanized 370E2B12C3-VH3 + VL1 (antibody, human IgG1, kappa, V domains shown)
VH: QVQLVESGGGVVQPGRSLRLSCAASGFSLTTYGVHWVRQAPGKGLEWVAVIWAGGSTNYNSALMSRFTISRDNSKNTLYLQMNSLRAEDTAVYYCARAAYYGNGLDYWGQGTMVTVSS
VL: DIVMTQSPDSLAVSLGERATINCKSSQTLLNSGNQKNYLTWYQQKPGQPPKLLIYWASTGESGVPDRFSGSGSGTDFTLTISSLQAEDVAVYYCQNAYFYPFTFGGGTKLEIKR
notes: humanized, human IgG1/kappa constant regions
B4: humanized 370E2B12C3-VH3 + VL2 (antibody, human IgG1, kappa, V domains shown)
VH: B3 VH
VL: DIVMTQSPLSLPVTPGEPASISCKSSQTLLNSGNQKNYLTWYLQKPGQSPQLLIYWASTGESGVPDRFSGSGSGTDFTLKISRVEAEDVGVYYCQNAYFYPFTFGGGTKVEIKR
notes: as for B3
B5: humanized 370E2B12C3-VH3 + VL3 (antibody, human IgG1, kappa, V domains shown)
VH: B3 VH
VL: B4 VL with I2V, P15L, E17Q, Y42F, L43Q, K45R, Q51R, L52R
notes: as for B3
B6: humanized 207F8G5-VH1.1 + VL1.1 (antibody, human IgG1, kappa, V domains shown)
VH: QVQLVQSGAEVKKPGASVKVSCKASGFTFTSYNIHWVKQAPGQGLEWMGYISPGNGGSNYNLKFKDRVTMTSDTSISTAYMELSRLRSDDTAVYFCATGRGFAYWGQGTLVTVSS
VL: DIVMTQSPDSLAVSPGERATMSCKSSQSLFNSGNQKNYLIWYQQKPGQPPKLLIYRASTRDSGVPDRFSGSGSGTDFTLTISSLQAEDVAVYYCQNDYSYPLTFGGGTKLEIKR
notes: as for B3
B7: humanized 412B6E4-VH1 + VL1.1 (antibody, human IgG1, kappa, V domains shown)
VH: EVQLVESGGGLVQPGGSLRLSCAASGFTFSSFGVHWVRQAPGKGLEWVSYISSGSSTIYYAHSVKGRFTISRDNAKNSLYLQMNSLRAEDTAVYYCARFYYGNSFAYWGQGTLVTVSS
VL: B3 VL with I21M, N22S, T28S, L52M, G60R, F99T, F102L, G106Q
notes: as for B3
B8: humanized 410H6H3-VH1.2 + VL1.1 (antibody, human IgG1, kappa, V domains shown)
VH: EVQLVESGGGLVQPGGSRRLSCAASGFTFSSSGMHWVRQAPGKGLEWVSYISSGSNTIYYADTLKGRFTISRDNAKNTLFLQMNSLRAEDTAVYYCARIYYGNSFVYWGQGTLVTVSS
VL: B3 VL with I21M, N22S, T28S, L52M, G60R, A97N, F99Y, F102L, G106Q
notes: as for B3
B9: humanized 246B5F2-VH1.1 + VL1 (antibody, human IgG1, kappa, V domains shown)
VH: EVQLLESGGGLVQPGGSLRLSCAASEFTFSNYAMSWVRQAPGKRLEWVATISSGRSSTYYPDSVKGRFTISRDNSKNTLYLQMNSLRAEDTAVYYCAGLGRGNAMEYWGQGTLVTVSS
VL: B3 VL with T28S, G60R, F99S
notes: as for B3
B10: humanized 412B6E4-VH1.1 + VL1.1 (antibody, human IgG1, kappa, V domains shown)
VH: B7 VH with S49A, Y80F
VL: B3 VL with I21M, N22S, T28S, L52M, G60R, F99T, F102L, G106Q
notes: as for B3
B11: humanized 232C5E3-VL1.1 + VH1 (antibody, human IgG1, kappa, V domains shown)
VH: QVQLVQSGAEVKKPGASVKVSCKASGYTFTSHNIHWVRQAPGQRLEWMGYIYPGNGGTNYNQKFKARVTITRDTSASTAYMELSSLRSEDTAVYYCARDYYGNSFAYWGQGTLVTVSS
VL: B3 VL with I21M, N22S, T28S, G60R, A97G, F99R, Y100F, G106Q
notes: as for B3
B12: humanized 232C5E3-VL1.1 + VH1.2 (antibody, human IgG1, kappa, V domains shown)
VH: B11 VH with V37I, R38K, R72A, Y95F
VL: B3 VL with I21M, N22S, T28S, G60R, A97G, F99R, Y100F, G106Q
notes: as for B3
B13: humanized 207F8G5-VH1.3 + VL1.1 (antibody, human IgG1, kappa, V domains shown)
VH: B6 VH with K38R, M48I, V68A
VL: B6 VL
notes: as for B3
B14: humanized 237D2A4-VH1.2 + VL1 (antibody, human IgG1, kappa, V domains shown)
VH: QVQLQESGPGLVKPSETLSLTCTVSGFSLTSYGVSWIRQPPGKGLEWIGVIWGDGSTNYHSTLISRVTISKDTSKNQVFLKLSSVTAADTAVYYCAKAGRGNALDYWGQGTLVTVSS
VL: B3 VL with T28S, G60R, A97D, F99S, Y100F, F102L
notes: as for B3
B15: humanized 410H6H3-VH1 + VL1 (antibody, human IgG1, kappa, V domains shown)
VH: B8 VH with R18L, T78S, F80Y
VL: B3 VL with T28S, G60R, A97N, F99Y, F102L, G106Q
notes: as for B3
B16: humanized 246B5F2-VH1.1 + VL1.1 (antibody, human IgG1, kappa, V domains shown)
VH: B9 VH
VL: B3 VL with N22S, T28S, G60R, S69T, F99S
notes: as for B3
B17: humanized 410H6H3-VH1.2 + VL1 (antibody, human IgG1, kappa, V domains shown)
VH: B8 VH
VL: B3 VL with T28S, G60R, A97N, F99Y, F102L, G106Q
notes: as for B3
B18: humanized 207F8G5-VH1.7 + VL1 (antibody, human IgG1, kappa, V domains shown)
VH: B6 VH with M70L, F95Y
VL: B6 VL with P15L, M21I, S22N
notes: as for B3
B19: humanized 232C5E3-VL1.1 + VH1.1 (antibody, human IgG1, kappa, V domains shown)
VH: B11 VH with M48I, V68A, R72A, Y95F
VL: B3 VL with I21M, N22S, T28S, G60R, A97G, F99R, Y100F, G106Q
notes: as for B3
B20: humanized 412B6E4-VH1.2 + VL1.1 (antibody, human IgG1, kappa, V domains shown)
VH: B7 VH with L18R, S78T, Y80F
VL: B3 VL with I21M, N22S, T28S, L52M, G60R, F99T, F102L, G106Q
notes: as for B3
B21: humanized 246B5F2-VH1 + VL1 (antibody, human IgG1, kappa, V domains shown)
VH: B9 VH with R44G, A49S, G98K
VL: B3 VL with T28S, G60R, F99S
notes: as for B3
B22: 370E2B12C3 (antibody, V domains shown)
VH: QVQLKESGPGLVAPSQSLSITCTVSGFSLTTYGVHWVRQPPGKGLEWLGVIWAGGSTNYNSALMSRVSINKDNSKSQVFIKMNSLQADDTALYYCARAAYYGNGLDYWGQGTTLTVSS
VL: DIVMTQSPSSLTVTAGEKVTMSCKSSQTLLNSGNQKNYLTWYQQKPGQPPKLLIYWASTGESGVPDRFTGSGSGTDFTLTISSVQAEDLAVYFCQNAYFYPFTFGGGTKLEIK
notes: mouse hybridoma mAb
B23: 418B8B10 (antibody, V domains shown)
VH: DVQLVESGGGLVQPGGSRKLSCAASGFTFSSFGMHWVRQAPEKGLEWVAYISSGSSPIYYTDTVKGRFTISRDNPKNTLFLQMTSLRSEDTAMYFCARFYYGNSFDHWGQGTLVTVSA
VL: DIVMTQSPSSLTVTAGEKVSMSCKSSQSLFNRGNQKSYLTWYQQRPGQPPKLLIYWASTRESGVPDRFTGSGSGTDFTLTISSVQAEDLAVYYCQNNYIYPLTFGAGTKLELK
notes: mouse hybridoma mAb
B24: 420H3H9 (antibody, V domains shown)
VH: B23 VH with P57T, T61A, D62H, T63S, R87G, F95Y, D106A, H107Y
VL: DIVMTQSPSSLTVTAGEKVTLSCKSSQSLLNSGNQKNYLTWYQQKPGQPPKMLIYWASTRESGVPDRFTGSGSGTDFTLTISSVQAEDLADYYCQNAYTYPLTFGAGTRLELK
notes: mouse hybridoma mAb
B25: 429H6C5 (antibody, V domains shown)
VH: B23 VH with G44E, P57T, T61A, D62H, Q82R, R87G, F95Y, A97V, D106V, H107N
VL: B24 VL with V13A, L21M, T69A, D91V, T99I
notes: mouse hybridoma mAb
B26: 430A11H9 (antibody, V domains shown)
VH: DVKLVESGGGLVKPGGSLKLSCAASGFTFSSYTMSWVRQTPEKRLEWVATISSGGSYTYYPDSVKGRFTISRDNAKNTLYLQMSSLKSEDTAMYYCTRDPGYFAYWGQGTLVTVSA
VL: DIQMTQSPASLSASVGETVTITCRASENIYSYLAWYQQKQGKSPQLLVYNAKTLAEGVPSRFSGSGSGTQFSLKINSLQPEDFGSYYCQHHYGTPYTFGGGTKLEIK
notes: mouse hybridoma mAb

The first experiment has as its target T1, human Claudin18.2 (human).
T1 construct: also called CLDN18.2
The experiment in a line: FACS, Claudin18.2-HEK293 cells. As to the method: (§1) The binding of chimeric antibodies to Claudin18.2 expressed on HEK293 cells was determine by FACS analysis. Briefly, HEK293 cells expressing human Claudin18.2 as prepared in the foregoing Example were harvested and incubated with anti-Claudin18.2 mAbs at 4° C. for 40 min, followed by fluorophore (iFluor 647)-labeled goat […] IgG (H+L) secondary antibodies at 4° C. for 0.5 hour. The samples were then analyzed by flow cytometry.
A general note: A flow cytometer gives signals particle by particle.
On to B1, for which a half-maximal response (EC50) required 1.53 nM.

The molecule B2 showed an EC50 of 1.3 nM. The EC50 values of the last two molecules are within 1.5-fold of each other.

Another experiment deals with T1, human Claudin18.2. As to the kind of experiment: FACS, Claudin18.2-HEK293 cells. This is another data set of the same source. As for the experimental part:
as §1
After initial screening of cell binding with transfected supernatants, the binding pattern of chimeric and up to 3 humanized antibodies on Claudin18.2 expressed on HEK293 cells were plotted with antibody in 3× serial dilutions, starting concentration of 45 μg/ml, following the protocol described in Example 3.
B3 had a 50% effective concentration (EC50) of 0.826 µg/mL and a Span of 4650.

B4 showed a concentration giving a half-maximal response (EC50) of 0.794 µg/mL and a Span of 4300.

B5 displayed an EC50 of 1.17 µg/mL and a Span of 5520.

Take B6: the EC50 amounted to 0.168 µg/mL and the Span was determined as 14000.

The molecule B7 came in with an EC50 of 0.373 µg/mL and a Span of 65900.

Molecule B8 came in with a concentration for a half-maximal effect (EC50) of 0.555 µg/mL and a Span of 64500.

With B9, the midpoint of the response, the EC50, lay at 0.104 µg/mL and the Span amounted to 10900.

Consider B10, for which the midpoint of the response, the EC50, lay at 0.571 µg/mL and the Span came to 71300.

As for B11, it took 0.304 µg/mL to reach a half-maximal effect (EC50) and the Span amounted to 58000.

Regarding B12, the EC50 was determined as 0.212 µg/mL and the Span came to 57900.

B13 had an EC50 of 0.143 µg/mL and a Span of 13800.

B14 gave a concentration for a half-maximal effect (EC50) of 0.261 µg/mL and a Span of 15700.

B15 displayed a 50% effective concentration (EC50) of 0.33 µg/mL and a Span of 72100.

The molecule B16 had an EC50 of 0.283 µg/mL and a Span of 14700.

Molecule B17 had an EC50 of 0.372 µg/mL and a Span of 73000.

B18 returned an EC50 of 0.145 µg/mL and a Span of 13800.

In turn, B19 registered an EC50 of 0.224 µg/mL and a Span of 54900.

Molecule B20 gave a concentration for a half-maximal effect (EC50) of 0.512 µg/mL and a Span of 70300.

Turning to B21, the half-maximal effective concentration (EC50) was determined as 0.16 µg/mL and the Span came to 14200.

In another experiment the target is T1, human Claudin18.2. As to the kind of experiment: cell ELISA, Claudin18.2-expressing HEK293T cells. In outline:
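Claudin18.2-expressing HEK293T stable cells (1.5×10⁶ cells/ml in 5% skim milk/PBS blocking buffer) were incubated 1 h at room temperature in plates pre-blocked overnight at 4° C. EC₅₀ was derived by four-parameter curve fit.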
Molecule B22 displayed an EC50 of 0.522 nM.

B23 returned a 50% effective concentration (EC50) of 3.17 nM.

Consider B24, for which a half-maximal response (EC50) required 20.7 nM.

B25 displayed a concentration for a half-maximal effect (EC50) of 13.2 nM.

In the case of B26, the EC50 is ~1.7 nM.

For orientation: EC50 means the concentration giving half of the maximal effect. Read a low EC50 as a more potent agent.
